In one data set the test system is GST-NS2A (Zika virus). Briefly: EMSA. Particulars: EMSA: 50 mM Tris-HCl pH 7.5, 10 mM 2-mercaptoethanol, 2 mM MgCl2, 50 mM KCl, 15 min at 24 C, 100 pM biotinylated RNA, 0.4% agarose; pull-down: Pierce magnetic ….
The subject of data set [1] is GST-NS2A(58-133) (Zika virus). Briefly: pull-down. The conditions noted are these: EMSA: 50 mM Tris-HCl pH 7.5, 10 mM 2-mercaptoethanol, 2 mM MgCl2, 50 mM KCl, 15 min at 24 C, 100 pM biotinylated RNA, 0.4% agarose; pull-down: Pierce magnetic …. Background: A gel shift assay detects complexes by their altered migration in electrophoresis.

As to 5' UTR-C66-3' UTR-biotin RNA, in the data set with GST-NS2A (Zika virus), the Kd (commonly the concentration at which binding is half-saturated) came to 10.3 nM. In data set [1], the binding signal (% (reference)) was 100.

Source of the values: paper PMC6819661.
